According to the DeepSol protein solubility set:

Test: soluble on expression in E. coli; label from the status in PepcDB or PDB records

Sequence	soluble on expression in E. coli
PAKRAFSNADQFVETMLPLAKEAAARIGVDPVMLVAQAALETGWGKSIMRQQDGSSSHNLFGIKAAGSWKGAEARAITSEFRDGKMVKETADFRSYDSYADSFHDLVSLLQNNNRYKDVVNSADKPEQFVKELQKAGYATDPAYASKISQIAKQMKS	not soluble
MRTVTGAILAMNLEVKDFVHRDVEEADRRLREIGARKILLQLPDGLKPYAFDYFTYLSQRYDVILSSSPVYGACDIGPSYLYDRVDAIVQVGHSIMRNVKYPRPVIFIEHYRTVDVEDINTEALKNYRRIGLIYSIQYRPVADRVKRILESKGFEVIIGRSDRRMTYDGQVLGCNFSSVHSVEAEVEAFVIVSTGSFHALGSQISTERPVFLLDLNEMSLRSMEKEADTFIRKRYAQIYRAMDAKRICFLVDTRIGQRREKLARMLMDRARDLGKEAVLAYTDNISDQDIQNMGCDLAVYTGCPRVPIDDQDRFTVPVLTPAEFSMAFFKSSKRYVLDEIVSVDEFTDQLEHHHHHH	not soluble
MAMADEQFENYLVMCYDKLESKQQKFISDYNIYNFDEYCYDQDPCILQFKKNGQVLLEFSVVFIGSWSGKSNSWMWSWANENVADYARSKSNCLKDLQKITGSEVFINPLFECDQEMAYELAAFSIEYLDAEGMYMAPGERSDVFMAVMSPHAL	not soluble
GPGSMLKRSVSAAARKAGADTLAAAPAAGQQPPSNPLLPYALRRAAACEMLYGGSRVQYLVQPPFTLHKIRSENLPPPSLYAERHDLGLEMQLPRDMHVYNSINMAIQRQVGGDSSTLDGEQQQLQGGHADGFDMGAFFTEQHHPERHHNSSLPYAKHDTNNVLAMRLFPVNVGVRARTEAIRIRTDDCLQRLRDADLCAKMRLPLEHPLPLSRRSQYAAIHRVRQERCYDAPTEAAGERAAAAAEEASRTAHLRGAAAHPPPSELSIVTRPVDRLGSHSGSSAAACTADADHLSFPVHPFAAAAVSSGCHSARSGSAARLASQRWLPLQTLKPMGHNWSAATRSSGVRGPHMQLMQERLDQKGFGWKRKSRSLWQQDVATAGFRPHRYF	soluble
MGSDKIHHHHHHMMSVQTTKLDAVPLGDRAPILEMRGISQIFPGVKALDGVNIALYPGEVTALIGENGAGKSTLVKILTGIYRPNEGEIVIDGSPVTFADAQAAIDAGVTAIHQETVLFDELSVAENIFLGHAPKTRFGFIDWNGINTKARALMDRLESKIDPTIRLKDLSIAQRHLVAIARALSVEARIVIMDEPTAALSRKEIDDLFRIVEGLKRDGKAILFISHKFDEVYEIAENYAVFRDGKMVGAGRLQSTPQDEIVRLMVGRDVHDAFPKIDVSIGAAVLSVSRYCHDTEFRDISFDLRKGEILGFYGLIGAGRSELCQSLFGITHPASGTVTLEGRALDIRSPADAIAAGIVYVPEERGRHGLALQMPIYQNMSLPSLARVSARGFLKVVNELALARHYAERLDLRAAALSVPVGTLSGGNQQKVVIGKWLATKPKVIILDEPTKGIDIGSKAAVHGFISELAAEGLSIIMISSELPEILGMSDRVMVMREGLQAGIFEREALTPEVLVRAATGNA	not soluble
MAKVIFQDNFLLMGTNYHEKEANKVMAEIGKKSPYWDKDKDFISDYIKSNFKDIYKYYRVSTKDVEIVREPLNRHDPNAIKVMVNKTFVGYFPADLAKRLTPYVKKSSHYQMEATLTGRGGQYKTLKNDLKTVVTKKKDITYKLRLTILKVDRVSKSKNAGLLESIASWFLNLEHHHHHH	soluble
KNAELSIKLNKEEYQANEDIEIQITAPYTGSGLITIERDKVYAVHWFKTEAQNSVQTIRIPADFQGNGYVNVAFIRDWESPELFISPLSYSVAPFNVNHDKHDIKIGLKTPELARPGESFTIDYHTDKPGKIIVFAVDEGILQVANY	not soluble
GNNFNWTSVLNMTHNKNKIVSLDGKLDQSIEGSWFIHKVGLPYSTFYVKEYAGVDPQTGKALYYMNTQDANGNYDRTVTTDASAAQAIPYKSVDPKISGGFTNIVNYKWFDLALTLTYSLGGYSFDKTGTYNETDGAKEQNYNLPIYELDRWQKPGDVTDVPRFVLGQAAGPQNSSRYVHSTDHLRVKNLTLGFTLPDQWLTKLGVSKARLYFSGSNLLTWAKWDQYDPEVPVSGEVFCETPPMRTYSFGIEVSF	not soluble
MMKRQTWPEPTIPVSQQFARGNFPVGIICEHPGEVNAYRYSSEEKRAMEHATEEQVQDLRCAAEVHRQVRRYAQSFIKPGISLLSMTDRIEKKLEELIEKDGLNRGQAFPTGCSLNHVAAHYTPNTGDKCVLMYDDVMKVDFGTQINGRIIDCAWTVAFKDEYEPLLTAVKEATYEGVKQAGIDVRLCDVGAAIQEVMESYEVELNGKVYPVKSIRNLSGHTIAPYVIHGGKSVPIVRGGEATRMEEGELFAIETFGSTGRGFVQEDMECSHYMMVPGGEKTQVRSDKAQQLLRHIHKTYNTLAFARKWLDRDGHDRHLLNLNQLVEAGAVNKYPPLCDIRGCYTAQLEHTLILKPTAKEILSKGDDY	not soluble
MFCSFFHEKKKNILRLNIRCQRLREHDNTAKIELFKSMRRRRSSTKASRKTTMGGAAELEDEWIPSETMSGAGWKARGDRKPKDKRVPFNRPTPYQIYEALPFVRRYFMYWMKHTFDKEKLFINTFQPLKHKPYYGVPCGGIGCGAIGRDFRGGFCKFSLRPGLVEHKVDVVAADQFILSVRENDRCIYQKVLSAADVQRPSGQLSTWDFKFPKKNVHYRGLFPRSWTTFRVPELELTVVIRQVSPVLPHNYEDTTYPVCLFLIDVENGGSASREYEISVAFTFRNGTGNRRWEREAECSGVKFETEEEGLKPTTTAQEKISGVSLYHTISSMPCTYGLATTHREHTTTTVCERFDPSRNGAALWNHLKQTGDVPSCEEECLINAREMAVAVCNRFTLPPNSTKTHDYALSWDMPKVHFGSVARSYHRRYTRFFEASEAGSAADSLCVRALRLKDKWESEIEAWQSPILNHKKLPDWYKSAIFNELYFITDGGTVWFEFDENWAEHETHLSHYTKDKMKEIGRFGYLESWEYRMVNTYDVHFYASFALAELWPELEITIQSEFTDQVYHSIEKPTRFHMEGDWANVKTASRVPHDLGNPADEPWIATNAYVMHDTGKWKDLNMKYVLTSWRDYVVLSNEHEDFLFHTWPAVRMIMLEALENWDQDGDGMIENFGKADQTYDAWQMEGVSAYCGSLWLASLRVAIEMAGLMKDDETQQLFRNTLEKAKKVFIDTLWTGTYFRFCERSRSRETVMADQLCGYWFLQSVSPELADELLPNHMVRSALDTIYRLNVCKFGNGRMGAVNGMKPSGVVDREYIQADEMWTGVTYAVASLLIQQGEVEKAFHTASGSYLTCFEETGLQYQTPEALYESKFYRAIGYMRPLSIWAMQWSLKKHCGMNTSEEKLPNLVKNEKVVPESEAAIQVQKQRILGDTSEDGSSLGYVSDYHDERSIPKIATLR	not soluble
MSGAVLPAVLVVPKMESVVVPIAESTVINAKDTTPSTAADNDVSPSPSEPDTDAIKMFVGQIPRQWNETDCRRLFEKYGSVFSCNILRDKSTQASKGCCFVTFYHRKDAIEAQGALHNIKVIEGMHHPVQMKPADTENRNERKLFIGQLSKKHNEENLREIFAKFGHIEDCSVLRDQDGKSRGCAFVTFTNRSCAVVATKEMHHSQTMEGCSAPLVVKFADTQKDKDVKTKSMITGSGAGSPKGGAASLLQNLNPALLQQLGGGQNYQAVASLLSLINGQQGQQQQHQQQQNVLGILGTVLSALGKLTEGGDDASAKSSSEKPRHQALMTSPAPTATSSTSSSASHHHQQHQQQLSQQQQQQQHPQQQGLGNPLLGNPAMAAQNQFDAITMAQIAHQQQMLALQGFAVQQGAPSQQQQGLAGGMAGAKTTSPVAASLANHQQIALTPFAGGAAALDHFQAMQQYALLANLQATGGVGVQATTSAAQMVGNGDVKGPDGANLFIYHLPQDFGDSDLINTFAPFGGILSAKVFIDKVTNLSKCFGFVSYENAQSATNAISAMNGFQIGSKRLKVQLKVDRGNPYNR	not soluble
MAHHHHHHMGDNIEKRYSLALYNVGKKNKKINEITSDILFIKNNFLKDKSFLNFLHTPNIESREKLNFLKTECKKYNNNFSPITSNFLESLFDSKRIKFLQKIIEEFELLLMKERKEIKCVVYTAKEINNNEKQKIQESILFKLKNELKPLIEYKIDKSILGGLVLQIGNQVFDFSAKYKIEKIRSTLS	not soluble
MKVRVKAPCTSANLGVGFDVFGLCLKEPYDVIEVEAIDDKEIIIEVDDKNIPTDPDKNVAGIVAKKMIDDFNIGKGVKITIKKGVKAGSGLGSSAASSAGTAYAINELFKLNLDKLKLVDYASYGELASSGAKHADNVAPAIFGGFTMVTNYEPLEVLHIPIDFKLDILIAIPNISINTKEAREILPKAVGLKDLVNNVGKACGMVYALYNKDKSLFGRYMMSDKVIEPVRGKLIPNYFKIKEEVKDKVYGITISGSGPSIIAFPKEEFIDEVENILRDYYENTIRTEVGKGVEVV	soluble
MLRPKEACQRLGISYATLREYVKKGYIKPVILQSGKQRFGEEDVERLMGIIRKRKVILYARVSSSTQKDELVNQVKYLEEQVKEYDLVITDIGSGLNMKRKGFLKLLRMILNNEVSRVVVAYPDRLVRVGFEILEEVCKAHNCEIVVLNQEDKEEELVEDLMSALVSFSGKLYGMRSHEYEKVKKCAEELKNWKI	not soluble
MGSDKIHHHHHHMECHIDLHNTVIQRRVPRDGRAAKHIGIAVFNGFSLLDTVSIVEAFETANRFAEASRHDAPRYVVRLLSSAGGRIASSSSVFVWTDSVEARGHAHDFHALFIAGGTGVHDAARDGRLLAWLRRTHLRSENVLSIAEGQFLLEAAGFASSAGIGSARGLVPRHYFRRETDPATQREVSSPLESALNLIEADLGTEITCKAAASLAPRASTQFTSVLNRNASGSVSDKIRASAQWLEANGHQPISIDRAAGIAAMSERNFLRRFKAEIGVTPSGYLLYVRLDMSCRLLVETALPVDKIARRCGFGDGGQLARLFRKHMGTTPSEYRNSHRQPHDR	not soluble
MGSDKIHHHHHHMAENFLTQDEVDALLNFENGSKHQQTAQKENEVSYPGGVRPYNMATQERIVRGRMPALEIINARFANSLQIGLYNFLRRGVDISAGSIKTIKYSEFTRSLVVPANINLVSMKPLRGTALFTIDPNLIFLIVDNMFGGDGRFHTRVEGREFTLTEQGIIRRLLDVLFEHYEKAWQSVYPVKFEYIRAEMNPQFANIVTPTDIVVASAFELNLGGNRGEFYTCIPYTMLEPIRDLLNNSMQEDRAEVDKNWIKSLTRQVQGAEIEIIANLGQTQVTLHQILNMQEGDVIALDIPDTVVAIANNVPIMDCHYGILNGHYALKVKTVRSPNETD	not soluble
GVVGSDARSRGRVPGYASSSLYRESGIISARQLALLQRMLPRLRLEQLFRCEWLQQRLARGLALGREEVRQILLCAAQDDDGWCAELGDRVNLAVPQSMIDWVLLPVYGWWESLLDQAIPGWRLSLVELETQSRQLRIKSEFWSRVAELEPEQAREELARVAKCQARTQEQVAELAGKLETASALAKSAWPNWQRGMATLLASGGLAGFEPIPEVLECLWQPLCRLDDDVGAADAVQAWLHERNLCQAQDHFYWQS	soluble
MAAPAASGLSRQVRSFSTSVVRPFAKLVRPPVQVYGIEGRYATALYSAASKEKKLDQVEKELLRVGQLLKDPKVSLAVLNPYIKRTVKVKSLNDITKREKFSPLTANLMNLLAENGRLGNTQGIISAFSTIMSVHRGEVPCTVTTASPLDDAVLSELKTVLKSFLSPNQILKLEIKTDPSIMGGMIVRIGEKYVDMSAKSKIQKLSKAMREML	soluble
